Patent publication US20240409663A1 (CONCEPT TO MEDICINE BIOTECH, published 2024)

How the values were obtained:
human GPC3 on cells [1] = target: T1, human GPC3 on cells (human, UniProt P51654 25-554); experiment: FACS, HEPG2 cells
T1 construct: whole, on cells; over-expressed on CHOK1 cells or endogenous on HEPG2, Hep3B and Huh-7 hepatocellular carcinoma cells; the cell line is named under assay; also called GPC3-CHOK1 cells; human GPC3 over-expressed CHOK1 cells
Procedure: (§1) To evaluate the antigen binding property, the humanized antibodies were analyzed for their binding to human GPC3 over-expressed CHOK1 cells, HEPG2 cells, Hep3B cells and Huh-7 cells by FACS. Briefly, GPC3-CHOK1 cells, HEPG2 cells, Hep3B cells and Huh-7 cells were firstly incubated with Fc blocking reagent at 4° C. for 15 mins. Cells were washed by FACS buffer and divided to each well with 4-fold serially diluted humanized antibodies starting at 10 μg/mL at 4° C. for 60 mins. Cells were washed by FACS buffer and fixed with 2% PFA at RT for 15 mins. […] The 16 humanized antibodies were separated into two plates.

human GPC3 on cells [2] = target: T1, human GPC3 on cells; experiment: FACS, GPC3-CHOK1 cells
Procedure: as §1

human GPC3 on cells [3] = target: T1, human GPC3 on cells; experiment: FACS, Huh-7 cells
Procedure: as §1

[4] = target: T2, human GPC3-his tag protein (human, UniProt P51654 25-559, limits assumed); experiment: SPR Biacore 8K, mAb captured, affinity ranking
T2 construct: recombinant soluble antigen used as analyte in all Biacore runs; also called recombinant GPC3 protein; rhGPC3-His; not shown: His tag
Procedure: To evaluate antigen binding activity, the chimeric antibody's affinity was measured by Biacore 8K. A serial dilution of human GPC3-his tag protein was injected over captured chimeric antibody 52H5D3B8-6 #-VH+VL for 3 mins at a flow rate of 30 μl/min. The antigen was allowed to dissociate for 720 s. Among the multi detection doses, two concentrations with most close affinity to the chimeric antibody's affinity were chosen for the 16 humanized antibodies' affinity detection.

human GPC3 on cells [5] = target: T1, human GPC3 on cells; experiment: FACS, Hep3B cells
Procedure: as §1

[6] = target: T2, human GPC3-his tag protein; experiment: SPR Biacore 8K, mAb captured, one or two doses GPC3-his
Procedure: The binding of the optimized antibodies of 52H5D3B8 mAb to human GPC3-his was tested with Biacore using a capture method. A single dose or two doses of human GPC3-his tag protein was injected over captured antibody. All the experiments were carried out on a Biacore 8K. Data analysis was carried out using Biacore 8K evaluation software.

human GPC3 on cells [7] = target: T1, human GPC3 on cells; experiment: FACS, GPC3-CHOK1 cells; remark: listed apart in the source
Procedure: Briefly, GPC3-CHOK1 cells were firstly incubated with Fc blocking reagent at 4° C. for 15 mins. Cells were washed by FACS buffer and divided to each well with 3-fold serially diluted 52H5D3B8, 52H5D3B8-1 #, 52H5D3B8-2 #, 52H5D3B8-3 #, 52H5D3B8-4 #, 52H5D3B8-5 #, 52H5D3B8-6 #, 52H5D3B8-7 #, 52H5D3B8-8 #, 52H5D3B8-9 #, 52H5D3B8-10 #, 52H5D3B8-11 #, 52H5D3B8-12 #, 52H5D3B8-13 #, 52H5D3B8-14 # and 52H5D3B8-15# chimeric mAbs starting at 30 μg/mL at 4° C. for 60 mins. Cells were washed by FACS buffer and fixed with 2% PFA at RT for 15 mins. […] Samples were washed twice with FACS buffer.

B1: 52H5D3B8-6#-VH3+VL2 (antibody, V domains shown)
VH: QVQLVQSGAEVKKPGASVKVSCKALGYTFTDYEMHWVKQAPGQGLEWIGAIHPGSGGTAYNQKFKGRVTLTADTSTSTVYMELSSLRSEDTAVYYCTRYYSYAYWGQGTLVTVSS
VL: DIVMTQTPLSLSVTPGQPASISCRSSQSLVHSNGNTYLQWYLQKPGQSPQLLIYKVSNRFSGVPDRFSGSGSGTDFTLKISRVEAEDVGVYFCFQSIHVPYTFGGGTKLEIK
notes: humanized
Binder B1 has an EC50 (human GPC3 on cells [1]) of 0.0444 µg/mL, an EC50 (human GPC3 on cells [2]) of 0.0429 µg/mL and an EC50 (human GPC3 on cells [3]) of 0.0411 µg/mL. The Kd [4] was 0.883 nM, the koff [4] was 0.000587 s⁻¹ and the kon [4] was 664000 M⁻¹ s⁻¹. It also gave an EC50 (human GPC3 on cells [5]) of 0.0786 µg/mL.

B2: 52H5D3B8-6#-VH1+VL2 (antibody, V domains shown)
VH: QVQLVQSGAEVKKPGASVKVSCKASGYTFTDYEMHWVRQAPGQGLEWMGAIHPGSGGTAYNQKFKGRVTMTRDTSTSTVYMELSSLRSEDTAVYYCARYYSYAYWGQGTLVTVSS
VL: DIVMTQTPLSLSVTPGQPASISCRSSQSLVHSNGNTYLQWYLQKPGQSPQLLIYKVSNRFSGVPDRFSGSGSGTDFTLKISRVEAEDVGVYFCFQSIHVPYTFGGGTKLEIK
notes: humanized
In the case of B2, the EC50 (human GPC3 on cells [1]) is reported as 0.043 µg/mL, the EC50 (human GPC3 on cells [2]) is reported as 0.0388 µg/mL and the EC50 (human GPC3 on cells [3]) is reported as 0.0326 µg/mL. For the same binder, the Kd [4] was 2 nM, the koff [4] was 0.00113 s⁻¹ and the kon [4] was 564000 M⁻¹ s⁻¹. It also gave an EC50 (human GPC3 on cells [5]) of 0.0615 µg/mL.

B3: 52H5D3B8-12# chimeric mAb (antibody, V domains shown)
VH: QVQLQQSGAELVRPGASVKLSCKALGYTFTDYEMHWVKQTPVHGLEWIGAIHPGSGGTAYNQKFKGKATLTADKFSSTGYMELSSLTSEDSAVYYCTRYYSYAYWGQGTLVTVSA
VL: DVVMTQTPLSLPVSLGDQASISCRSSQSLVHSNGNTYLQWYLQKPGQSPKLLIYKVSNRFSGVPDRFSGSGSGTDFILKISRVEAEDLGVYFCFQSTHVPYTFGGGTKLEIK
notes: CDR3 mutant of the 52H5D3B8 chimeric mAb (human IgG1)
B3 gave a Kd [6] of 5.56 nM, a koff [6] of 0.00133 s⁻¹ and a kon [6] of 240000 M⁻¹ s⁻¹. The EC50 (human GPC3 on cells [7]) was 0.235 µg/mL.

B4: 52H5D3B8-13# chimeric mAb (antibody, V domains shown)
VH: QVQLQQSGAELVRPGASVKLSCKALGYTFTDYEMHWVKQTPVHGLEWIGAIHPGSGGTAYNQKFKGKATLTADKFSSTGYMELSSLTSEDSAVYYCTRYYSFAYWGQGTLVTVSA
VL: DVVMTQTPLSLPVSLGDQASISCRSSQSLVHSNGNTYLQWYLQKPGQSPKLLIYKVSNRFSGVPDRFSGSGSGTDFILKISRVEAEDLGVYFCSQSTHVPYTFGGGTKLEIK
notes: as for B3
B4 was tested, and the Kd [6] was 28.9 nM, the koff [6] was 0.00143 s⁻¹ and the kon [6] was 49600 M⁻¹ s⁻¹. For the same binder, the EC50 (human GPC3 on cells [7]) was 1.55 µg/mL.

B5: 52H5D3B8-15# chimeric mAb (antibody, V domains shown)
VH: QVQLQQSGAELVRPGASVKLSCKALGYTFTDYEMHWVKQTPVHGLEWIGAIHPGSGGTAYNQKFKGKATLTADKFSSTGYMELSSLTSEDSAVYYCTRYYSFAYWGQGTLVTVSA
VL: DVVMTQTPLSLPVSLGDQASISCRSSQSLVHSNGNTYLQWYLQKPGQSPKLLIYKVSNRFSGVPDRFSGSGSGTDFILKISRVEAEDLGVYFCFQSTHVPYTFGGGTKLEIK
notes: as for B3
B5 was tested, and the Kd [6] was 28.2 nM, the koff [6] was 0.00755 s⁻¹ and the kon [6] was 267000 M⁻¹ s⁻¹. For the same binder, the EC50 (human GPC3 on cells [7]) was 0.15 µg/mL.

B6: 52H5D3B8-14# chimeric mAb (antibody, V domains shown)
VH: QVQLQQSGAELVRPGASVKLSCKALGYTFTDYEMHWVKQTPVHGLEWIGAIHPGSGGTAYNQKFKGKATLTADKFSSTGYMELSSLTSEDSAVYYCTRYYSFAYWGQGTLVTVSA
VL: DVVMTQTPLSLPVSLGDQASISCRSSQSLVHSNGNTYLQWYLQKPGQSPKLLIYKVSNRFSGVPDRFSGSGSGTDFILKISRVEAEDLGVYFCFQSIHVPYTFGGGTKLEIK
notes: as for B3
In the case of B6, the Kd [6] is reported as 1.53 nM, the koff [6] is reported as 0.000737 s⁻¹ and the kon [6] is reported as 481000 M⁻¹ s⁻¹. It also gave an EC50 (human GPC3 on cells [7]) of 0.0895 µg/mL.
